# Source: patent US20220064321A1
# Key:
# [1] = target: CD16a on effector cells NK92MI-CD16a (UniProt P08637); test: cell-based or functional assay
# [2] = target: FcγRIIIa(V158) (Sino Biological Inc, 10389-H08C1) (UniProt P08637); test: binding ELISA; His-tagged FcγRIIIa captured by anti-His antibody, IgG pre-complexed with goat F(ab')2 anti-human-κ, HRP anti-human F(ab')2 detection
# Sequence of FcγRIIIa(V158) (Sino Biological Inc, 10389-H08C1) (P08637 17-208 F176V limits assumed): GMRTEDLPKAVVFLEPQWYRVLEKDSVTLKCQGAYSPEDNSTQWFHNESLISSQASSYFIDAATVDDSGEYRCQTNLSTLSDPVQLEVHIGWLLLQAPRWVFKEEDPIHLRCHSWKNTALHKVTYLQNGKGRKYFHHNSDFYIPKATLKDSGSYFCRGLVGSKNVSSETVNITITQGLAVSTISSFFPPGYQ
# Sequence of CD16a on effector cells NK92MI-CD16a (P08637 17-254 limits assumed): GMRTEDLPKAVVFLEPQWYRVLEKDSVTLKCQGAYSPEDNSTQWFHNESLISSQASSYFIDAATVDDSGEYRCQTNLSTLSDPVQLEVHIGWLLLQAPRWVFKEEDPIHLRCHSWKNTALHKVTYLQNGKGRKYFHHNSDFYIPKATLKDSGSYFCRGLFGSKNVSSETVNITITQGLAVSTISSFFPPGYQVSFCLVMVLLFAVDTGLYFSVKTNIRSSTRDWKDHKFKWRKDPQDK
substance,measurement,setting,value
RITUXAN® (rituximab) (antibody),"ADCC Target cell: Daudi, EC50",[1],4.53 ng/mL
same,"ADCC Target cell: Raji, EC50",[1],0.345 ng/mL
same,EC50,[2],194 ng/mL
